Results published in US20080113383A1 (FIBRO GEN, published 2008).
Read-outs that look alike come from different tables or passages of the source. Where no end group is shown, it is not given here. [ ]: non-standard residue; d: D form. ΔPro = O=C(O)[C@@H]1C=CCN1; Aze = O=C(O)[C@@H]1CCN1

B1: DTDLDLEAWApYIPADDDFQ (peptide)
peptide: DTDLDLEAWAPYIPADDDFQ
modifications: not fully specified; printed as DTDLDLEAWApYIPADDDFQ
B2: DTDLDVEAYA8YIPADDDFQ (peptide)
peptide: DTDLDVEAYA[Aze]YIPADDDFQ
B3: DTDLDAEAVApYIPADDDFQ (peptide)
peptide: DTDLDAEAVAPYIPADDDFQ
B4: DTDLDAEALApYIPADDDFQ (peptide)
peptide: DTDLDAEALAPYIPADDDFQ
B5: DTDLDSEALApYIPADDDFQ (peptide)
peptide: DTDLDSEALAPYIPADDDFQ
modifications: not fully specified; printed as DTDLDSEALApYIPADDDFQ
B6: DTDLDLEMLLpYIPMDDDFQ (peptide)
peptide: DTDLDLEMLLPYIPMDDDFQ
modifications: not fully specified; printed as DTDLDLEMLLpYIPMDDDFQ
B7: DTDLDLEACApYIPADDDFQ (peptide)
peptide: DTDLDLEACAPYIPADDDFQ
B8: DTDLDLEMLCpYIPMDDDFQ (peptide)
peptide: DTDLDLEMLCPYIPMDDDFQ
modifications: not fully specified; printed as DTDLDLEMLCpYIPMDDDFQ
B9: DTDLDLEMLEpYIPMDDDFQ (peptide)
peptide: DTDLDLEMLEPYIPMDDDFQ
modifications: not fully specified; printed as DTDLDLEMLEpYIPMDDDFQ
B10: DTDLDWEALApYIPADDDFQ (peptide)
peptide: DTDLDWEALAPYIPADDDFQ
modifications: not fully specified; printed as DTDLDWEALApYIPADDDFQ
B11: DTDLDTEAYA8YIPADDDFQ (peptide)
peptide: DTDLDTEAYA[Aze]YIPADDDFQ
B12: DTDLDVEAFA8YIPADDDFQ (peptide)
peptide: DTDLDVEAFA[Aze]YIPADDDFQ
B13: DTDLDVEAIApYIPADDDFQ (peptide)
peptide: DTDLDVEAIAPYIPADDDFQ
modifications: not fully specified; printed as DTDLDVEAIApYIPADDDFQ
B14: DTDLDLEAVApYIPADDDFQ (peptide)
peptide: DTDLDLEAVAPYIPADDDFQ
modifications: not fully specified; printed as DTDLDLEAVApYIPADDDFQ
B15: DTDLDMEALApYIPADDDFQ (peptide)
peptide: DTDLDMEALAPYIPADDDFQ
modifications: not fully specified; printed as DTDLDMEALApYIPADDDFQ
B16: DTDLDLEALA4YIPADDDFQ (peptide)
peptide: DTDLDLEALA[ΔPro]YIPADDDFQ
B17: DTDLDLEAMApYIPADDDFQ (peptide)
peptide: DTDLDLEAMAPYIPADDDFQ
B18: DTDLDDEALApYIPADDDFQ (peptide)
peptide: DTDLDDEALAPYIPADDDFQ
B19: DTDLDLEANApYIPADDDFQ (peptide)
peptide: DTDLDLEANAPYIPADDDFQ
B20: DTDLDLEMLHpYIPMDDDFQ (peptide)
peptide: DTDLDLEMLHPYIPMDDDFQ
modifications: not fully specified; printed as DTDLDLEMLHpYIPMDDDFQ
B21: DTDLDLEAYApYIPADDDFQ (peptide)
peptide: DTDLDLEAYAPYIPADDDFQ
modifications: not fully specified; printed as DTDLDLEAYApYIPADDDFQ
B22: DTDLDAEATA8YIPADDDFQ (peptide)
peptide: DTDLDAEATA[Aze]YIPADDDFQ
B23: DTDLDFEALApYIPADDDFQ (peptide)
peptide: DTDLDFEALAPYIPADDDFQ
B24: DTDLDEEALApYIPADDDFQ (peptide)
peptide: DTDLDEEALAPYIPADDDFQ
B25: DTDLDVEAYApYIPADDDFQ (peptide)
peptide: DTDLDVEAYAPYIPADDDFQ
modifications: not fully specified; printed as DTDLDVEAYApYIPADDDFQ
B26: DTDLDLEAKApYIPADDDFQ (peptide)
peptide: DTDLDLEAKAPYIPADDDFQ
B27: DTDLDPEALApYIPADDDFQ (peptide)
peptide: DTDLDPEALAPYIPADDDFQ
modifications: not fully specified; printed as DTDLDPEALApYIPADDDFQ
B28: DTDLDTEAVA8YIPADDDFQ (peptide)
peptide: DTDLDTEAVA[Aze]YIPADDDFQ
B29: DTDLDAEAAA8YIPADDDFQ (peptide)
peptide: DTDLDAEAAA[Aze]YIPADDDFQ
B30: DTDLDLEALA8YIPADDDFQ (peptide)
peptide: DTDLDLEALA[Aze]YIPADDDFQ
B31: DTDLDVEAFApYIPADDDFQ (peptide)
peptide: DTDLDVEAFAPYIPADDDFQ
modifications: not fully specified; printed as DTDLDVEAFApYIPADDDFQ
B32: DTDLDLEARApYIPADDDFQ (peptide)
peptide: DTDLDLEARAPYIPADDDFQ
B33: DTDLDLEATApYIPADDDFQ (peptide)
peptide: DTDLDLEATAPYIPADDDFQ
B34: DTDLDIEAIA8YIPADDDFQ (peptide)
peptide: DTDLDIEAIA[Aze]YIPADDDFQ
B35: DTDLDLEMLFpYIPMDDDFQ (peptide)
peptide: DTDLDLEMLFPYIPMDDDFQ
modifications: not fully specified; printed as DTDLDLEMLFpYIPMDDDFQ
B36: DTDLDIEAIApYIPADDDFQ (peptide)
peptide: DTDLDIEAIAPYIPADDDFQ
B37: DTDLDLEAHApYIPADDDFQ (peptide)
peptide: DTDLDLEAHAPYIPADDDFQ
B38: DTDLDVEAVA8YIPADDDFQ (peptide)
peptide: DTDLDVEAVA[Aze]YIPADDDFQ
B39: DTDLDCEALApYIPADDDFQ (peptide)
peptide: DTDLDCEALAPYIPADDDFQ
B40: DTDLDLEAFApYIPADDDFQ (peptide)
peptide: DTDLDLEAFAPYIPADDDFQ
B41: DTDLDLEAAApYIPADDDFQ (peptide)
peptide: DTDLDLEAAAPYIPADDDFQ
B42: DTDLDIEALApYIPADDDFQ (peptide)
peptide: DTDLDIEALAPYIPADDDFQ
B43: DTDLDGEALApYIPADDDFQ (peptide)
peptide: DTDLDGEALAPYIPADDDFQ

Assays:
Experiment in all cases: cell-based or functional assay
EGLN3 [1] = molecular target: EGLN3
EGLN1 [2] = molecular target: EGLN1
EGLN2 [3] = molecular target: EGLN2
EGLN1 [4] = molecular target: EGLN1; remark: listed apart in the source
EGLN2 [5] = molecular target: EGLN2; remark: listed apart in the source
EGLN3 [6] = molecular target: EGLN3; remark: listed apart in the source

Binder | Activity (%)* (EGLN3 [1]) [%] | Activity (%)* (EGLN1 [2]) [%] | Activity (%)* (EGLN2 [3]) [%] | Activity (%)* (EGLN1 [4]) [%] | Activity (%)* (EGLN2 [5]) [%] | Activity (%) (EGLN3 [6])
B1 | 37.3 | 50.4 | 42.4 | – | – | –
B2 | – | – | – | 32.3 | 27.2 | 33.5
B3 | 35.6 | 34 | 26.3 | – | – | –
B4 | 87.2 | 51 | 46.9 | – | – | –
B5 | 61.3 | 34.7 | 23.8 | – | – | –
B6 | 46.2 | 2.36 | -0.42 | – | – | –
B7 | 49.4 | 41.3 | 40.4 | – | – | –
B8 | 63.1 | 1.94 | 0.4 | – | – | –
B9 | 52.8 | 2.27 | 3.35 | – | – | –
B10 | 120 | 108 | 138 | – | – | –
B11 | – | – | – | 25.1 | 17 | 29.7
B12 | – | – | – | 21.2 | 13.9 | 24.5
B13 | 43.3 | 45.3 | 36.6 | – | – | –
B14 | 117 | 99.2 | 86.8 | – | – | –
B15 | 128 | 86.4 | 79.1 | – | – | –
B16 | – | – | – | 124 | 173 | 74.4
B17 | 94.3 | 63.7 | 55.8 | – | – | –
B18 | 65 | 51 | 42.8 | – | – | –
B19 | 42.5 | 49.2 | 37.7 | – | – | –
B20 | 68.2 | 2.41 | 3.47 | – | – | –
B21 | 90.1 | 77.2 | 67.8 | – | – | –
B22 | – | – | – | 7.6 | 1.55 | –

Binder | Activity (%)* (EGLN3 [1]) [%] | Activity (%)* (EGLN1 [2]) [%] | Activity (%)* (EGLN2 [3]) [%] | Activity (%)* (EGLN1 [4]) [%] | Activity (%)* (EGLN2 [5]) [%] | Activity (%) (EGLN3 [6])
B23 | 142 | 65.2 | 58.6 | – | – | –
B24 | 80.8 | 49.6 | 44.3 | – | – | –
B25 | 44.5 | 35.5 | 32.4 | – | – | –
B26 | 44.1 | 63.2 | 54.6 | – | – | –
B27 | 76.6 | 40.8 | 37.4 | – | – | –
B28 | – | – | – | – | – | 10.3
B29 | – | – | – | 10.3 | 4.16 | –
B30 | – | – | – | 78.9 | 62 | 169
B31 | 44.2 | 34.1 | 37.5 | – | – | –
B32 | 68.6 | 79 | 78.6 | – | – | –
B33 | 63.2 | 68.2 | 54.9 | – | – | –
B34 | – | – | – | 18.3 | 10 | 31.2
B35 | 59.3 | 4.16 | 0.63 | – | – | –
B36 | 72.8 | 72.5 | 64.3 | – | – | –
B37 | 27 | 34 | 32.3 | – | – | –
B38 | – | – | – | – | – | 20.6
B39 | 75.8 | 44.7 | 48.8 | – | – | –
B40 | 76.4 | 82.2 | 73.9 | – | – | –
B41 | 30.2 | 36.1 | 30.9 | – | – | –
B42 | 149 | 50.7 | 43.7 | – | – | –
B43 | 40.9 | 37.3 | 32 | – | – | –
